In patent publication US20240002540A1 (KEYMED BIOSCIENCES CHENGDU, published 2024):

Experiments:
[1] = biological target: T1, Cynomolgus monkey CD3εγ-Fc heterodimer (cynomolgus monkey); experiment: ELISA on coated cynomolgus monkey CD3εγ protein (panel 'Monkey CD3εγ dimer')
T1 construct: also called cynomolgus monkey CD3εγ protein
T1 chain 1: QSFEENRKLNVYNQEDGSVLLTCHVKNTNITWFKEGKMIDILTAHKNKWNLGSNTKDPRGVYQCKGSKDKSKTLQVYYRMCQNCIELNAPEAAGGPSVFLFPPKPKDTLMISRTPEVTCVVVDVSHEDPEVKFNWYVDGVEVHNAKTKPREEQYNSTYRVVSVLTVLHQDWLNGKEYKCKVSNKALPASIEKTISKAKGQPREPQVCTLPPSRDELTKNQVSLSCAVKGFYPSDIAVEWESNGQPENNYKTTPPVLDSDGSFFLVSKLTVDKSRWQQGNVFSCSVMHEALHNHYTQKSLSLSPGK
T1 chain 2: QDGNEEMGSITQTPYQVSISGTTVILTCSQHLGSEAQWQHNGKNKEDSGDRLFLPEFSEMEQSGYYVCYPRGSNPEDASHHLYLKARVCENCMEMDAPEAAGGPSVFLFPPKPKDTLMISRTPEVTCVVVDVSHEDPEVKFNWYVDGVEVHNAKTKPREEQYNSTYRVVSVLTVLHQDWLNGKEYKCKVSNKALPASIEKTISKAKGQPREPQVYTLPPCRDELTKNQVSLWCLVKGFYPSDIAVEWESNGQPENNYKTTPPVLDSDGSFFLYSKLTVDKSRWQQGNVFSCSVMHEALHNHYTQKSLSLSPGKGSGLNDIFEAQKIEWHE
Method: Human CD3εγ protein and cynomolgus monkey CD3εγ protein were coated separately overnight at 4° C. After blocking with 2% skim milk, different dilutions of CD3 antibody were added to each well and incubated for 1 hour. After the secondary antibody was developed by adding HPR-labeled goat anti-human IgG Fc and TMB solution, the reaction was stopped with concentrated sulfuric acid, and the absorbance was read at 450 nm.

[2] = biological target: T2, human CD3 on T cells (Jurkat cells; human peripheral blood CD4+ and CD8+ T-cells) (human, UniProt P07766 23-207); experiment: flow cytometry on human peripheral blood CD4+ T cells
T2 construct: whole, on cells; the other chains of the complex are present on the cells; also called CD4T; CD4 + T

[3] = biological target: T2, human CD3 on T cells (Jurkat cells; …); experiment: flow cytometry on human peripheral blood CD8+ T cells
[4] = biological target: T2, human CD3 on T cells (Jurkat cells; …); experiment: flow cytometry on Jurkat cells
Method: The cells were adjusted to 5×10^5 cells/mL with 4% calf serum, 100 μL/well was added to 96-well U-plate, 300 g was centrifuged to removed the supernatant, 100 μL/well of gradient diluted antibody (initial concentration: 1800 nM, 3-fold dilution, 10 gradients) was added and incubated at 4° C. for 60 min. […] 50 μL/well PI was added after washing once, incubated for 5 min, and detected with flow cytometer (BD C6).

[5] = biological target: T3, human BCMA on cells (human, UniProt Q02223 1-184); experiment: flow cytometry on NCI-H929 cells
T3 construct: whole, on cells; also called Human BCMA-CHO; CHO-hBCMA
T3 sequence (looked up): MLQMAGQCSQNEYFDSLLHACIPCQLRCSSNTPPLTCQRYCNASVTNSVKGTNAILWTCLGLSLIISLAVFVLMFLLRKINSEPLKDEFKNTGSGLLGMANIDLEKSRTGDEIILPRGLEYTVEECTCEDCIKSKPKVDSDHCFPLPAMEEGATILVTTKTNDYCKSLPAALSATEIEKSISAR
Method: (§1) 50 μL/well Alexa Fluro647 labeled goat anti-human IgG Fc (1: 300 dilution) were added to the secondary antibody, incubated on ice for 20 min, added with 50 μL/well PI solution (1: 300) after washing once, incubated for 5 min, and flow cytometer was used to make detection.

[6] = biological target: T3, human BCMA on cells; experiment: flow cytometry on RPMI-8226 cells
Method: as §1

[7] = biological target: T3, human BCMA on cells; experiment: flow cytometry on CHO-human BCMA cells
Method: as §1

[8] = biological target: T2, human CD3 on T cells (Jurkat cells; …); experiment: flow cytometry on human peripheral blood CD4+ T-cells
Method: (§2) Fresh human peripheral blood was taken and PBMC was isolated by Ficoll. Paque Plu (GE, 17-1440-03). PBMC was adjusted to 5×10⁵ cells/mL with 4% calf serum (Hyclone, SH30626.06), 100 μL/well was added to a 96-well U-plate, the supernatant was centrifuged off and 100 μL of gradient diluted antibody (with starting concentration of 1800 nM, 3-fold dilution, 10 gradients) was added to each well and incubated for 60 min at 4° C. 50 μL/well of Alexa Fluro647 labeled goat anti-human IgG Fc (1: 300 dilution) was added to the secondary antibody, with ice bath for 20 min, and 50 μL/well PI added after washing once, incubated for 5 min, and flow cytometer (BD C6) was used for detection. The control antibody REGN5458 was synthesized and prepared according to US20200024356.

[9] = biological target: T2, human CD3 on T cells (Jurkat cells; …); experiment: flow cytometry on human peripheral blood CD8+ T-cells
Method: as §2

[10] = biological target: T4, human CD3εγ-Fc heterodimer (human); experiment: SPR (Biacore T200), antigen amine-coupled to CM5 chip, antibody as analyte, 1:1 model
T4 construct: also called human CD3εγ protein; human CD3εγ recombinant protein
T4 chain 1: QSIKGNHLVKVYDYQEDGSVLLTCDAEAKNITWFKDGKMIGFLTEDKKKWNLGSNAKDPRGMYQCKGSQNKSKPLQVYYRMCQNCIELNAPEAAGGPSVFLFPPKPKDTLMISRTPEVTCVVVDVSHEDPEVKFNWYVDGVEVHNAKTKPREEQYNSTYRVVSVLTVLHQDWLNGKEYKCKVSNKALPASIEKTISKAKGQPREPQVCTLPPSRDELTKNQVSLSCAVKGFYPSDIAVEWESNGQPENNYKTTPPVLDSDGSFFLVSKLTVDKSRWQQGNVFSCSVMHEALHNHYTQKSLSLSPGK
T4 chain 2: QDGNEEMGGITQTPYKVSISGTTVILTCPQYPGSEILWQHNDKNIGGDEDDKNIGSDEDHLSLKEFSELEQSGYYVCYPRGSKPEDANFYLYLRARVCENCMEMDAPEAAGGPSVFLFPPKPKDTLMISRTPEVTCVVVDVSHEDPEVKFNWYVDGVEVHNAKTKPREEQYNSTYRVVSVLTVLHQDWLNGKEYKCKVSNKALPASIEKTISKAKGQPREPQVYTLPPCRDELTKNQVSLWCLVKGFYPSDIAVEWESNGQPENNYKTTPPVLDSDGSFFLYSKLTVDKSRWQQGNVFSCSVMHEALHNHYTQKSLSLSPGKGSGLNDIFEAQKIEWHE
Method: (§3) 10 μg/mL human or cynomolgus monkey BCMA or CD3εγ recombinant antigen was bound to a CM5 chip (GE healthcare) by amino conjugating, while the amount of antigen bound was controlled to approximately 200 RU. After baseline plateau, gradient diluted antibodies (7 gradients of 2-fold dilutions from 10 μg/mL) were flowed through the chip at a flow rate of 30 μL/min for a binding time of 350 seconds and a dissociation time of 600 seconds. Kinetic constants were fitted using Biacore T200 evaluation software with a 1: 1 binding model.

[11] = biological target: T1, Cynomolgus monkey CD3εγ-Fc heterodimer; experiment: as above
Method: as §3

[12] = biological target: T5, human BCMA recombinant antigen (human, UniProt Q02223 1-54, limits assumed); experiment: as above
T5 sequence (looked up): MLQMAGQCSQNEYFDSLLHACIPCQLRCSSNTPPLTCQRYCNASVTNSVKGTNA
Method: as §3

[13] = biological target: cynomolgus monkey BCMA recombinant antigen (cynomolgus monkey, UniProt A0A2K5UD97 1-53); experiment: as above
Method: as §3

Sequence of cynomolgus monkey BCMA recombinant antigen (A0A2K5UD97 entry or part of it): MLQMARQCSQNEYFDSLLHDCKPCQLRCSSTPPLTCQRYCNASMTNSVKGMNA

B1: aCD3-hVH9/VL2 (antibody, human IgG4, V domains shown)
VH: EVQLVESGGGLVQPGGSLRLSCAASGFTFNTYAMNWVRKAPGKGLEWVGRIRSKYNNYATYYADSVKDRFTISRDDSKNSLYLQMNSLKTEDTAVYYCVRHGNFGNSYVSWFAYWGQGTLVTVSS
VL: QAVVTQEPSLTVSPGGTVTLTCRSSTGAVTTSNYANWVQEKPGQAPRGLIGGTNKRAPWTPARFSGSLLGGKAALTLSGAQPEDEAEYYCALWYSNLWVFGGGTKLTVL
notes: also called humanized anti-CD3 antibody hVH9/VL2
EC50 (read off the curve) [1]: ~0.04 ng/mL

B2: aCD3-hVH9/VL5 (antibody, human IgG4, V domains shown)
VH: EVQLVESGGGLVQPGGSLRLSCAASGFTFNTYAMNWVRKAPGKGLEWVGRIRSKYNNYATYYADSVKDRFTISRDDSKNSLYLQMNSLKTEDTAVYYCVRHGNFGNSYVSWFAYWGQGTLVTVSS
VL: QAVVTQEPSLTVSPGGTVTLTCRSSTGAVTTSNYANWVQEKPGQAPRGLIGGTNKRAPWTPARFSGSLLGGKAALTITGAQAEDEAEYYCVLWYSNLWVFGGGTKLTVL
notes: also called humanized anti-CD3 antibody hVH9/VL5
EC50 (read off the curve) [1]: ~0.06 ng/mL

B3: REGN5458 (antibody, V domains shown)
VH: EVQLVESGGGLVQPGRSLRLSCAASGFTFDDYSMHWVRQAPGKGLEWVSGISWNSGSKGYADSVKGRFTISRDNAKNSLYLQMNSLRAEDTALYYCAKYGSGYGKFYHYGLDVWGQGTTVTVSS
VL: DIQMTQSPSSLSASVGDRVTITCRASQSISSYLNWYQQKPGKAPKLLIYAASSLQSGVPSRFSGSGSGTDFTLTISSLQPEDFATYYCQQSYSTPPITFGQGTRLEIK
EC50 (read off the curve) [2]: ~10 nM
EC50 (read off the curve) [3]: ~10 nM

B4: BCMA×CD3 κλ006 (bispecific antibody, human IgG4 S228P, kappa, lambda)
light 1: DIVLTQSPASLAVSPGQRATITCRASKSVTTSGYSYIHWYQKKPGQPPKLLIYLASDLEAGVPARFSGSGSGTDFTLTINPVEAEDTANYYCQHSRELPWTFGQGTKVEIKRTVAAPSVFIFPPSDEQLKSGTASVVCLLNNFYPREAKVQWKVDNALQSGNSQESVTEQDSKDSTYSLSSTLTLSKADYEKHKVYACEVTHQGLSSPVTKSFNRGEC
heavy 1: QVQLVQSGSELKKPGASVKVSCKASGYIFTNFGMNWVREAPGQGLEWMGWINTYTGEQIYADGFTGRFVFSLDTSASTAYLQISSLKAEDTAVYFCARGEIYYGYDVGFVYWGQGTLVTVSSASTKGPSVFPLAPCSRSTSESTAALGCLVKDYFPEPVTVSWNSGALTSGVHTFPAVLQSSGLYSLSSVVTVPSSSLGTKTYTCNVDHKPSNTKVDKRVESKYGPPCPPCPAPEFEGGPSVFLFPPKPKDTLMISRTPEVTCVVVDVSQEDPEVQFNWYVDGVEVHNAKTKPREEQFNSTYRVVSVLTVLHQDWLNGKEYKCKVSNKGLASSIEKTISKAKGQPREPQVCTLPPSQEEMTKNQVSLSCAVKGFYPSDIAVEWESNGQPENNYKTTPPVLDSDGSFFLVSKLTVDKSRWQEGNVFSCSVMHEALHNHYTQKSLSLSLGK
light 2: QAVVTQEPSLTVSPGGTVTLTCRSSTGAVTTSNYANWVQEKPGQAPRGLIGGTNKRAPWTPARFSGSLLGGKAALTITGAQAEDEAEYYCVLWYSNLWVFGGGTKLTVLGQPKAAPSVTLFPPSSEELQANKATLVCLISDFYPGAVTVAWKADSSPVKAGVETTTPSKQSNNKYAASSYLSLTPEQWKSHRSYSCQVTHEGSTVEKTVAPTECS
heavy 2: EVQLVESGGGLVQPGGSLRLSCAASGFTFNTYAMNWVRKAPGKGLEWVGRIRSKYNNYATYYADSVKDRFTISRDDSKNSLYLQMNSLKTEDTAVYYCVRHGNFGNSYVSWFAYWGQGTLVTVSSASTKGPSVFPLAPCSRSTSESTAALGCLVKDYFPEPVTVSWNSGALTSGVHTFPAVLQSSGLYSLSSVVTVPSSSLGTKTYTCNVDHKPSNTKVDKRVESKYGPPCPPCPAPEFEGGPSVFLFPPKPKDTLMISRTPEVTCVVVDVSQEDPEVQFNWYVDGVEVHNAKTKPREEQFNSTYRVVSVLTVLHQDWLNGKEYKCKVSNKGLASSIEKTISKAKGQPREPQVYTLPPCQEEMTKNQVSLWCLVKGFYPSDIAVEWESNGQPENNYKTTPPVLDSDGSFFLYSKLTVDKSRWQEGNVFSCSVMHEALHNHYTQKSLSLSLGK
EC50 [4]: 56 nM
EC50 [5]: 32 nM
EC50 [6]: 19 nM
EC50 [7]: 16 nM
EC50 [8]: 91 nM
EC50 [9]: 93 nM
Kd [10]: 27 nM
Kd [11]: 33 nM
Kd [12]: 1.2 nM
Kd [13]: 0.1 nM
